# Test results published in publication doi:10.1101/2020.10.05.326918 (bioRxiv, 2020).
# T1: MED23 (Mus musculus (endogenous in CH12 cells), UniProt Q80YQ2 1-1367)
# T1 sequence (looked up): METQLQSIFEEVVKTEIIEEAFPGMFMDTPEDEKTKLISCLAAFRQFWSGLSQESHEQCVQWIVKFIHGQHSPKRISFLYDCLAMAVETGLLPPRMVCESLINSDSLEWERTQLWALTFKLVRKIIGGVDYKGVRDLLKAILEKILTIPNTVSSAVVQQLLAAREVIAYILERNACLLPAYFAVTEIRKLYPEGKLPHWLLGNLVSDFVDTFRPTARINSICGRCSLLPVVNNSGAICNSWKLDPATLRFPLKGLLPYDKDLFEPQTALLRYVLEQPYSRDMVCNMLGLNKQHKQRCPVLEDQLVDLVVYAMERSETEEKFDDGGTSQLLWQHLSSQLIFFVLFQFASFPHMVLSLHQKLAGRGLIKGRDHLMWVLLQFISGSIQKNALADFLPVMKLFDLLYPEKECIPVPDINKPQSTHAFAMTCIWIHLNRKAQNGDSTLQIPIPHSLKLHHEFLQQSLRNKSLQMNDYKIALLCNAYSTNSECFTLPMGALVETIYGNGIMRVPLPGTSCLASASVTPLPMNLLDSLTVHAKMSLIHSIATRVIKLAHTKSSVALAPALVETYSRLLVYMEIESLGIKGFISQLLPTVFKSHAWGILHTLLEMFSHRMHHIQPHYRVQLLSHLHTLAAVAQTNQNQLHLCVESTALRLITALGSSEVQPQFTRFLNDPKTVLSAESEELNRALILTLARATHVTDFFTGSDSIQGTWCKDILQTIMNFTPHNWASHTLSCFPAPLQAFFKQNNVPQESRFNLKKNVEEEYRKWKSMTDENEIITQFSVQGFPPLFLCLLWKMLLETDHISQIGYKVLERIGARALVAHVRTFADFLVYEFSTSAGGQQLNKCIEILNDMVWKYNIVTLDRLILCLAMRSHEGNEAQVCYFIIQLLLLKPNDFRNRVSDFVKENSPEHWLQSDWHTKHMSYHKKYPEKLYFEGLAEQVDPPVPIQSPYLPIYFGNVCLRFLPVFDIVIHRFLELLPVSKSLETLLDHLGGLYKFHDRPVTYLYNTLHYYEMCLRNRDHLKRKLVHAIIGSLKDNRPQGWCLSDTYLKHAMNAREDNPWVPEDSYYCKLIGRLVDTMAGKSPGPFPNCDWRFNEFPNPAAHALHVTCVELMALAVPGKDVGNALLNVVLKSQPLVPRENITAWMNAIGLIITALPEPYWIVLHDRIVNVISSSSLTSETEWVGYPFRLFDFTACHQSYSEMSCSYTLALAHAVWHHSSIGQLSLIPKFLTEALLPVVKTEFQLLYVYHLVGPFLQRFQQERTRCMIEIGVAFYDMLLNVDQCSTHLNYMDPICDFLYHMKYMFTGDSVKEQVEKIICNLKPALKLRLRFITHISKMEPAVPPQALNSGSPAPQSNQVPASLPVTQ
# T2: MED16 (Mus musculus (endogenous in CH12 cells), UniProt Q6PGF3 1-828)
# T2 sequence (looked up): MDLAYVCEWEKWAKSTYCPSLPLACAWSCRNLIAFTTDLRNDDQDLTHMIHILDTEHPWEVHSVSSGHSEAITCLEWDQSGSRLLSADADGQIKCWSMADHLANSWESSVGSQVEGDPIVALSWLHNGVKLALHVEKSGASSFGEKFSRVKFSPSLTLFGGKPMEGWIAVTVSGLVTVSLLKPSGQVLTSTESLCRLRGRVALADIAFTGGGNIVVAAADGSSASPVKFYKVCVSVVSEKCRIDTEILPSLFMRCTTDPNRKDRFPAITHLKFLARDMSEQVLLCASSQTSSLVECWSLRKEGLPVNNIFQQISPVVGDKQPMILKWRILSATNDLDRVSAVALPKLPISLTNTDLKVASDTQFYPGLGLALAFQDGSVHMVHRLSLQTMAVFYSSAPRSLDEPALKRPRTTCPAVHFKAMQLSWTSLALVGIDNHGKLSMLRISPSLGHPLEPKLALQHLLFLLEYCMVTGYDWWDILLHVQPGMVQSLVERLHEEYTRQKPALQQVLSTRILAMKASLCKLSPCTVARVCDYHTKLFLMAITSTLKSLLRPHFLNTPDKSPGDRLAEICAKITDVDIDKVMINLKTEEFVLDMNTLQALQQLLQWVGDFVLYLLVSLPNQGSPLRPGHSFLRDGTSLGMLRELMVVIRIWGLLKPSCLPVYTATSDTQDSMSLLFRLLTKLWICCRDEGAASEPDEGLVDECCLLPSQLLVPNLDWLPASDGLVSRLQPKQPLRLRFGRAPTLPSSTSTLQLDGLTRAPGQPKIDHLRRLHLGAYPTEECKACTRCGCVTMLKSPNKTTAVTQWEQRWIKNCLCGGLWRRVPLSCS
# T3: MED24 (Mus musculus (endogenous in CH12 cells), UniProt Q99K74 1-987)
# T3 sequence (looked up): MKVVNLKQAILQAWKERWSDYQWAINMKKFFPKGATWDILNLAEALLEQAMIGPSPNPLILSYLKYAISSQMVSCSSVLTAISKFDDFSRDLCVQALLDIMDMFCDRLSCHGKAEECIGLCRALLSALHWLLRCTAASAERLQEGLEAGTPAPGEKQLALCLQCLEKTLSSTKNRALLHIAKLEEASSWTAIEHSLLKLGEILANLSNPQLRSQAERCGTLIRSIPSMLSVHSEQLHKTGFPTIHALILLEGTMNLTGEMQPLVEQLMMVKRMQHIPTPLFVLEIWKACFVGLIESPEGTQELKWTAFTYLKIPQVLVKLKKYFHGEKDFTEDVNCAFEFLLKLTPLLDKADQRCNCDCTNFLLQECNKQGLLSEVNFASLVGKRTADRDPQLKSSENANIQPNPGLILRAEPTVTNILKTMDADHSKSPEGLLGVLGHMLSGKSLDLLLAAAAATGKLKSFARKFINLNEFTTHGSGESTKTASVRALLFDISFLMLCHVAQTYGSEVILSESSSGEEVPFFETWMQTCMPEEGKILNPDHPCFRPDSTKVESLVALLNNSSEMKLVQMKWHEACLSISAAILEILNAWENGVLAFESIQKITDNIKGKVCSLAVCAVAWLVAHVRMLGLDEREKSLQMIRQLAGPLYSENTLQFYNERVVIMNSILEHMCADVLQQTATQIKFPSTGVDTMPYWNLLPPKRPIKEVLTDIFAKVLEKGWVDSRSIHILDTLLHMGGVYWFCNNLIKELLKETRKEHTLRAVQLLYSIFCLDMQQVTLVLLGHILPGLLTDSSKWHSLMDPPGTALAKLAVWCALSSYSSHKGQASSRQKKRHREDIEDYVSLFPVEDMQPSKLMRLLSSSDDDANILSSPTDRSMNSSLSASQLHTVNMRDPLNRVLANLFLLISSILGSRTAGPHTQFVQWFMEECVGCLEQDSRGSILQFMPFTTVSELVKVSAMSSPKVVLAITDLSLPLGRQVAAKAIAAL
# Columns and labels:
# Assay in all cases: cryo-EM structure
# MED14 = MED14 (Mus musculus (endogenous in CH12 cells), UniProt A2ABV5 1-1459)
# Sequence of MED14 (A2ABV5 whole entry): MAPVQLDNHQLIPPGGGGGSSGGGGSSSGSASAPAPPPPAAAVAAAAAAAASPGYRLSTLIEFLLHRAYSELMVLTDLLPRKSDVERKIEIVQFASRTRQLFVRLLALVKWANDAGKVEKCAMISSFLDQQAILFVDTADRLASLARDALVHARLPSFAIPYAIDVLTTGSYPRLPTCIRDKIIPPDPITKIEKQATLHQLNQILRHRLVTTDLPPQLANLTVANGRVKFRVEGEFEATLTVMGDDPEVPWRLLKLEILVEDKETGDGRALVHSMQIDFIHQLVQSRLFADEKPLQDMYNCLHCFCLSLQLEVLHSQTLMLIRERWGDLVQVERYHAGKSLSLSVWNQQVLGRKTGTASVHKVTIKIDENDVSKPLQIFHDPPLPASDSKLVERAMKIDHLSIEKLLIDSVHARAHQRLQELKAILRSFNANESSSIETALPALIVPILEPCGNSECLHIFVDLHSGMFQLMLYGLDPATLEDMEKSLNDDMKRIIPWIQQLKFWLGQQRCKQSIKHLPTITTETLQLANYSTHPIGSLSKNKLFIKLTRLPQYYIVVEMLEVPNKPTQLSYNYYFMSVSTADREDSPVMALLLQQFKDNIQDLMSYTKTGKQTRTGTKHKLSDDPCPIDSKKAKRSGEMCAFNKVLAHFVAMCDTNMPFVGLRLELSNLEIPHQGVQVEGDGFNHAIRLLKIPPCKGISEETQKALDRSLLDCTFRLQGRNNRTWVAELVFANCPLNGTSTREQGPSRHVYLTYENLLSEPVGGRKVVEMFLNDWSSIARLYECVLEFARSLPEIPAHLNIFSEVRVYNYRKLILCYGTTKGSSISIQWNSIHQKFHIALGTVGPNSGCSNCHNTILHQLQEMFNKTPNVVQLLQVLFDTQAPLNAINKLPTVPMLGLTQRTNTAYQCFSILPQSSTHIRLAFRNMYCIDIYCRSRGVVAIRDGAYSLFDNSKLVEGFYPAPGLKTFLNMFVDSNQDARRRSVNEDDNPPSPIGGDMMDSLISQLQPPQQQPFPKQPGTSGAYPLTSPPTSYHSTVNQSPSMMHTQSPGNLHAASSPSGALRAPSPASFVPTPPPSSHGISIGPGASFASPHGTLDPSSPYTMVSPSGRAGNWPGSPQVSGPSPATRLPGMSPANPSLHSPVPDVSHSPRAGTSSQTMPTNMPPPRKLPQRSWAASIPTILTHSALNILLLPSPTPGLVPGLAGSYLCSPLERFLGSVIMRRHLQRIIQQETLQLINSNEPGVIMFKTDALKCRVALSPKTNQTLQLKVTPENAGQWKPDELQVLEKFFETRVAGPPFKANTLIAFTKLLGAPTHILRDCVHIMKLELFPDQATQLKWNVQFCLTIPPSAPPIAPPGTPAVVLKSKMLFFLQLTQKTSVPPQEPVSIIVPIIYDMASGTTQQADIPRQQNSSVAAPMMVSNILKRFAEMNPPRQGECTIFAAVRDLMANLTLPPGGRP
# MED23 = target: T1, MED23
# MED16 = target: T2, MED16
# MED24 = target: T3, MED24
binding result (MED14),binding result (MED23),binding result (MED16),binding result (MED24),Binder
binds,binds,binds,binds,"MED15 (natural protein, Mus musculus (endogenous in CH12 cells), UniProt Q924H2 1-789, looked up) MDVSGQETDWRSAAFRQKLVSQIEDAMRKAGVAHSKSSKDMESHVFLKAKTRDEYLSLVARLIIHFRDIHNKKSQASVSDPMNALQSLTGGPTPGAAGIGMPPRGPGQSLGGMGGLGAMGQPLPLSGQPPPGTSGMAPHGMAVVSTATPQTQLQLQQVALQQQQQQQQQQQFQQQQAALQQQQQQQQQQQQQQQFQAQQNAMQQQFQAVVQQQQLQQQQQQQHLIKLHHQSQQQQIQQQQLQRMAQLQLQQQQQQQQQQALQAQPPMQQPSMQQPQPPPSQALPQQLSQLHHPQHHQPPPQAQQSPIAQNQPPQIPPQSQSQPLVSQAQALPGPMLYAAQQQLKFVRAPMVVQQPQVQPQVQQVQPQVQPQAAVQAAQSAQMVAPGVQMIAEALAQGGMHVRARFPPTSTMSAGPSSSISLGGQPTTQVSQSSLTMLSSPSPGQQVQTPQSMPPPPQPSPQPGSQPNSNVSSGPAPSPSSFLPSPSPQPSQSPVTARTPQNFSVPSPGPLNTPVNPSSVMSPAGSSQAEEQQYLDKLKQLSKYIEPLRRMINKIDKNEDRKKDLSKMKSLLDILTDPSKRCPLKTLQKCEIALEKLKNDMAVPTPPPPPVLPTKQQDLCQPLLDAVLANIRSPVFNHSLYRTFVPAMMAIHGPPIVSPVVCSRKRRFEEDERQSIPNVLQGEVARLDPKFLVNLDPSHCSNNGTVHLICKLDDKDLPSVPPLELSVPADYPAQSPMWIDRQWQYDANPFLQSVHRCMTSRLLQLPDKHSVTALLNTWAQSIHQACLSAA"
–,binds,binds,binds,"MED25 (natural protein, Mus musculus (endogenous in CH12 cells), UniProt Q8VCB2 1-745, looked up) MVPGSEGPARAGGLVADVVFVIEGTANLGPYFEELRKHYLLPAIEYFNGGPPAETDFGGDYGGTQYSLVVFNTVDCAPESYVQCHAPTSSAYEFVTWLDGIKFMGGGGESCSLIAEGLSTALQLFDDFKKMREQIGQTHRVCLLICNSPPYLLPAVESTTYSGCTTESLVQKIGERGIHFSIVSPRKLPALRLLFEKAAPPALLEPLQQPADVSQDPRHMVLVRGLVLPVGGSSTSGSLQTKQAVPLPPAPASAATLSAAPPQALPPVPPQYQVPGNLSAAQVAAQNAVEAAKSQKAGLGPRFSPINPLQQAAPGVGPPFSQAPAPPLAPVPPGAPKPPPASQPSLVSTVAPGPVLAAPAQPGAPSLAGTVTPGGVNGPSAAQLGGPALGGQQSVSNKLLAWSGVLEWQEKPKPASVDANTKLTRSLPCQVYVNHGENLKTEQWPQKLIMQLIPQQLLTTLGPLFRNSRMVQFHFTNKDLESLKGLYRIMGNGFAGCVHFPHTAPCEVRVLMLLYSSKKKIFMGLIPYDQSGFVNGIRQVITNHKQVQQQKLEQQRGMGAQQAPPVLGPILEEQARPPQNLLQLRAPQPQPQGAVGASAATGQPQPQGATQAPTGAPQGPPGAAPGPPPSGPILRPQNPGANPQLRSLLLNPAPPQTGVPPPQASLHHLQPPGAPTLLPPHQSMGQPQLGPQLLHPPPAQSWPTQLPQRAPLPGQMLLSGGPRGPVPQPGLQPSVMEDDILMDLI"
